PMC5472179 (Nature Communications, 2017)
Ends that are not written are not given here. * marks the point of attachment. FITC = O=C1OC2(c3ccc(O)cc3Oc3cc(O)ccc32)c2ccc(NC(=S)*)cc21

B1: eVP30_(110–272) (domain or fragment)
chain: GSVEQQLNITAPKDSRLANPTADDFQQEEGPKITLLTLIKTAEHWARQDIRTIEDSKLRALLTLCAVMTRKFSKSQLSLLCETHLRREGLGQDQAEPVLEVYQRLHSDKGGSFEAALWQQWDRQSLIMFITAFLNIALQLPCESSAVVVSGLRTLVPQSDNEE
B2: eNP_(600–739) (domain or fragment)
chain: RTPTVAPPAPVYRDHSEKKELPQDEQQDQDHTQEARNQDSDNTQSEHSFEEMYRHILRSQGPFDAVLYYHMMKDEPVVFSTSDGKEYTYPDSLEEEYPPWLTEKEAMNEENRFVTLDGQQFYWPVMNHKNKFMAILQHHQ

How the values were obtained:
SEC-MALS = molecular target: the molecule itself; assay: SEC-MALS
eVP30_(110–272) [1] = molecular target: B1; assay: ITC; settings: both partners purified
eVP30_(110–272) [2] = molecular target: B1; assay: SEC-MALS; settings: both partners purified
eVP30_(110–272) [3] = molecular target: B1; assay: fluorescence polarisation; settings: both partners purified

B1
stoichiometry N (SEC-MALS): 2

B2
Kd (eVP30_(110–272) [1]): 3.75 µM | stoichiometry N (eVP30_(110–272) [1]): 0.8 | stoichiometry N (eVP30_(110–272) [2]): 1

{FITC}-RTPTVAPPAPVYRDHS [FITC-eVP30BP]
binding result (eVP30_(110–272) [3]): binds

RTPTVAPPAPVYRDHS [eVP30BP (unlabelled)]
binding result (eVP30_(110–272) [3]): binds
